Measured values: patent publication US20050208482A1, “Tat-based immunomodulatory compositions and methods for their discovery and use” (priority 2004, published 2005)

Legend:
[1] = tested on: monocytes committed to the dendritic cell (DC) lineage; assay: Tat induction of CD86 on monocytes committed to the DC lineage (FACScan); type: cell-based, Human; details: committed DCs cultured overnight; Tat 50 nM, LPS 100 ng/mL; Control MFI 9
Description: An additional embodiment of the present invention is that Tat induces monocytes committed to the dendritic cell (DC) lineage to enlarge into activated, CD86+DC APCs (FIG. 1). Human monocytes enriched from PBMCs by Percoll density gradient separation and adherance to anti-CD14 coated magnetic beads (Dynabeads M-450, Dynal Biotech) were committed to differentiate into DCs through five days of culture in GM-CSF (100 ng/mL) and IL-4 (100 ng/mL). Committed DCs were cultured overnight either in medium alone (Control), LPS (100 ng/mL), or Tat (50 nM), after which they were stained with an anti-CD86 antibody (BD Pharmingen) and analyzed by FACScan for CD86 induction (left panel) or generalized activation (right panel, enlargement into box R2, shown for Tat-stimulated cells). The MFIs for CD86 expression are 9 (Control), 30 (LPS), and 187 (Tat), CD86 being a specific determinant of DC activation.

T cells = assay: T cell activation by Tat; type: cell-based; details: 50 nM Tat
CD4+T cells = assay: Direct apoptosis of CD4+ T cells by Tat; type: cell-based
Human monocytes = assay: Tat activation of monocytes/macrophages, Fas ligand (FasL) induction by flow cytometry; type: cell-based
Description: Tat activation of monocytes is dose-dependent and saturatable (FIG. 3). Human monocytes were cultured in increasing concentrations of recombinant Tat for six days at which time they were assayed for Fas ligand (FasL) induction as a measure of activation by using flow cytometry (FACScan, Becton Dickinson) to quantitate the intensity of staining (mean fluorescence index (MFI)) with an anti-Fas ligand monoclonal antibody (Nok 1, BD Pharmingen).

Human PBMCs = type: cell-based
antibody response to p24 = assay: Suppression of humoral immune response to HIV-1 p24 in immunized mice (ELISA); type: in vivo; details: 5 μg p24 + 5 μg Tat in complete Freund's adjuvant s.c.
Description: Tat suppresses the antigen-specific humoral immune response to HIV-1 p24 (FIG. 4). At week 0, mice (4 in each group) were immunized with 5 μg recombinant p24 protein (Chiron, Emeryville, Calif.) and either 5 μg recombinant Tat protein (PT) or 5 μg recombinant ox-Tat* protein (Ag) mixed in 100 μL complete Freund's adjuvant and administered subcutaneously in the flank. Following immunization, sera were collected every other week for 10 weeks and assayed for a specific antibody response to p24 by commercially available ELISA (Abbott Laboratories, Abbott Park, Ill.). […] This response was maintained for at least 6 weeks. The antibody titers at 6 weeks are approximately ten times greater than at week 2 due to maturation of the immune response.

Molecule | MFI for CD86 expression [1] | T cell activation (T cells) | concentration required to initiate direct apoptosis of CD4+T cells (CD4+T cells) | concentration of Tat that triggers the effect on the macrophages (Human monocytes; FasL-inducing macrophage effect) [pM] | plateau stimulatory concentration for APCs (Human monocytes; six days culture, FasL MFI, higher concentrations did not increase MFI) [nM] | proliferation (stimulation index) relative to antigen treatment alone (Human PBMCs) [%] | reversal of Tat suppression, proliferation as % of control (Human PBMCs; with further addition of anti-IL-10 and anti-IL-6 antibodies to the cultures) | duration for which suppression of p24 antibody response was maintained (antibody response to p24) | p24 antibody titer at 2 weeks (antibody response to p24; compared with ox-Tat* control)
lipopolysaccharide [LPS, reference compound] | 30 |  |  |  |  |  |  |  | 
Tat: conventional immunosuppressive HIV-1 trans-activator of transcription protein, recombinant (SEQ ID NO. 2) (protein, Human immunodeficiency virus type 1) MEPVDPRLEPWKHPGSQPKTACTTCYCKKCCFHCQVCFTKKALGISYGRKKRRQRRRAPEDSQTHQVSPPKQPAPQFRGDPTGPKESKKKVERETETHPVD | 187 | could not be activated | approximately 500 nM | 500 | 50 | 141 | > 95 % of control | at least 6 weeks | completely suppressed
